# Laboratory results as given in patent US20080200416A1.
# How the values were obtained:
# [1] = target: antagonist MCC 99R I-E^k complex (mouse) (UniProt P04224); test: cell-based or functional assay
# [2] = target: agonist MCC I-E^k complex (mouse) (UniProt G3UW40); test: cell-based or functional assay
# Chain of antagonist MCC 99R I-E^k complex (mouse) (P04224 26-216, one chain of several): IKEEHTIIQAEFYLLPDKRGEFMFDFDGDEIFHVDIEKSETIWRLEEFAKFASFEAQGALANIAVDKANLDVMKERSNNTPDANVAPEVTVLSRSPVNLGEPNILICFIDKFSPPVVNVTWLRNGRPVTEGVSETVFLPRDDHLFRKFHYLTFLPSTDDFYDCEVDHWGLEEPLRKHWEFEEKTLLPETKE
substance,measurement,setting,value
5C.C7 TCR,"peak cytosolic calcium response, miR-181a T cell blasts",[1],> 2 fold
same,"half-maximal calcium response (EC50), control T cell blasts",[2],5 peptides
same,"half-maximal calcium response (EC50), miR-181a T cell blasts",[2],2 peptides
